Patent publication US20130089536

Molecular target: Aβ1-40 peptide (UniProt P05067)

hGCP II (wild type human glutamate carboxypeptidase II expressed from cDNA in cells)
Aβ1-40 cleavage in primary rat astrocytes (Aβ1-40 in growth medium by ELISA): 2-PMPA did not block A1-40 cleavage of lentiviral GCP II
